Laboratory results published in patent US20240310359A1.

Molecular target: SERCA1a, mouse (endogenous, differentiated skeletal muscle cells) (mouse) (UniProt Q8R429)
Assay: cell-based or functional assay

SERCA1a, mouse (endogenous, differentiated skeletal muscle cells) (mouse), sequence (Q8R429 whole entry): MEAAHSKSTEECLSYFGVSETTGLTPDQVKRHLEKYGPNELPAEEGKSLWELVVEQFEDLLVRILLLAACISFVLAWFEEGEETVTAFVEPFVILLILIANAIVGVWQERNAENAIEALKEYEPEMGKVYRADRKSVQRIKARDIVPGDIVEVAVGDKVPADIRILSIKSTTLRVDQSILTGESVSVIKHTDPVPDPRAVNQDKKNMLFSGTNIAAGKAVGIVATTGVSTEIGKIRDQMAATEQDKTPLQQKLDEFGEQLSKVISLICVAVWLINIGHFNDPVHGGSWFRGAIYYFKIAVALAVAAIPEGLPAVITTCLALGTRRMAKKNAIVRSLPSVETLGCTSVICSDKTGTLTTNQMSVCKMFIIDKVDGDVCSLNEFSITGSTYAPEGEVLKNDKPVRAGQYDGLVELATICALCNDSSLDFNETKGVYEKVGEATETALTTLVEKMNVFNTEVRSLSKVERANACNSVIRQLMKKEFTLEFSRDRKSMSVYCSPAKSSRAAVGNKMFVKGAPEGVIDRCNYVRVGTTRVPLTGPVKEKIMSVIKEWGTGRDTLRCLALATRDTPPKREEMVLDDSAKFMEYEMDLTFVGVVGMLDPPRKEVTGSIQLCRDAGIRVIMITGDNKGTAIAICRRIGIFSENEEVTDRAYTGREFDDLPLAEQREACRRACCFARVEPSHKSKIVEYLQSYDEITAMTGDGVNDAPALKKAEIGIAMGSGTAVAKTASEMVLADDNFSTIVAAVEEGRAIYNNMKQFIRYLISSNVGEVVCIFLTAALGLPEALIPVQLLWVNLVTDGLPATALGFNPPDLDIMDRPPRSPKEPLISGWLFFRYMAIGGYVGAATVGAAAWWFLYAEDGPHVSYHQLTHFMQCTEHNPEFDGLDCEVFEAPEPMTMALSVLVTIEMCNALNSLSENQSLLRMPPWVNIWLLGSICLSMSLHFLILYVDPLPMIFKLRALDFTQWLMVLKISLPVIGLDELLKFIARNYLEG
NHL-Del (mutant of TRIM32 without NHL repeats, expressed from pEGFP-N1 in mouse differentiated skeletal muscle cells), sequence (Q13049 1-361, stated change not applied): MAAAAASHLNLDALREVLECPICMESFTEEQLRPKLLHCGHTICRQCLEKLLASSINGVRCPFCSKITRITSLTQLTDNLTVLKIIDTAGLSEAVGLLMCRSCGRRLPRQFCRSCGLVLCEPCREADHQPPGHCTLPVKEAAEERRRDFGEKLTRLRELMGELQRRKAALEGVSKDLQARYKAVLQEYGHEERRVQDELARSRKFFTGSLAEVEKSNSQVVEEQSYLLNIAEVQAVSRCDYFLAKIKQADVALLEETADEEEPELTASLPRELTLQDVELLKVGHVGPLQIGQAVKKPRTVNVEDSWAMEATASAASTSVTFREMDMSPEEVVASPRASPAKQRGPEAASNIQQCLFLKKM
wild-type TRIM32 (expressed from pEGFP-N1 in mouse differentiated skeletal muscle cells) (from UniProt Q13049 1-653) (enzyme), sequence (Q13049 whole entry): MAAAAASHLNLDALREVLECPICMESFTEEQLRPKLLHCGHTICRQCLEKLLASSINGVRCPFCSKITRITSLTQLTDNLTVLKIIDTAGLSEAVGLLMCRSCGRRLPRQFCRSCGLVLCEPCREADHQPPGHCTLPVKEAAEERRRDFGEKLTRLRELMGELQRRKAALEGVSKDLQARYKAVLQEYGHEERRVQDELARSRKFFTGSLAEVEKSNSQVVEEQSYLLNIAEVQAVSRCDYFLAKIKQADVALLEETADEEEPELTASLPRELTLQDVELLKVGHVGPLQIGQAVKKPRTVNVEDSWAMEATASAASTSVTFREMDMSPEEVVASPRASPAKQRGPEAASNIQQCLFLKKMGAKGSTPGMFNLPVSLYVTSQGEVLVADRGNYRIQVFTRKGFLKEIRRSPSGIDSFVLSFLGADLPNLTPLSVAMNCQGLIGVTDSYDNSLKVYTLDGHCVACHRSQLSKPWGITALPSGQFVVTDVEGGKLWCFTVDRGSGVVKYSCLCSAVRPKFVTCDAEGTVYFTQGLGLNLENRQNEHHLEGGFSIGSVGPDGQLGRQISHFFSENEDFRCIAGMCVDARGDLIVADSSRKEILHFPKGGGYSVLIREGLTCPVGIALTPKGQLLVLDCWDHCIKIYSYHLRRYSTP
wild-type TRIM32 (expressed from pEGFP-N1 in mouse differentiated skeletal muscle cells) (from UniProt Q13049 1-653), sequence (Q13049 whole entry): as above

Row | Substance | Caffeine response (normalized ratio to vector control) | KCl response (normalized ratio to vector control) | Releasable Ca^2+ level from SR (normalized ratio to vector control)
1 | wild-type TRIM32 (expressed from pEGFP-N1 in mouse differentiated skeletal muscle cells) (from UniProt Q13049 1-653) | 1.22 |  | 
2 | wild-type TRIM32 (expressed from pEGFP-N1 in mouse differentiated skeletal muscle cells) (from UniProt Q13049 1-653) (enzyme) |  | 1.27 | 1.48
3 | NHL-Del (mutant of TRIM32 without NHL repeats, expressed from pEGFP-N1 in mouse differentiated skeletal muscle cells) (from UniProt Q13049 1-361) (enzyme) | 0.97 | 0.94 | 0.99
